The values that follow come from publication doi:10.1101/2024.11.11.622897.

This series has as its target T1, DdaA (A. baumannii), AbDdaA (Acinetobacter baumannii ATCC 17978, UniProt V5VBS3 1-335).
T1 sequence: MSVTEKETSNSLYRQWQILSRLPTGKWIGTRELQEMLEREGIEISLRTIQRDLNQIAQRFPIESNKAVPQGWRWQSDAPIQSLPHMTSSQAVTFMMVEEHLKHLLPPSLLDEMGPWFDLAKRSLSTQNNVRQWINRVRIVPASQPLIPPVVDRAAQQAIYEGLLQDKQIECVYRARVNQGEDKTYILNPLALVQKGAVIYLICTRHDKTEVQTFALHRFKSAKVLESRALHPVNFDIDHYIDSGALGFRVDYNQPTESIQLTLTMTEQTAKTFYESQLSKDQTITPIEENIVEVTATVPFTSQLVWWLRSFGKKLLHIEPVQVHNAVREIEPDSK
Kind of series: EMSA.

B1: recA promoter motif WT (AR-DDRM) (dsDNA)
DNA 1: TTTCCGGTCTGGGCGACACAATATGACGTGTAATTTTAACC
DNA 2: GGTTAAAATTACACGTCATATTGTGTCGCCCAGACCGGAAA
As for B1, the binding result is on record as “binds”.
